Measurements: US20240343823A1 (Ablynx, published 2024)
Read-outs that look alike come from different tables or passages of the source.

Experiments:
Assay in all cases: cell-based or functional assay
[1] = biological target: T1, human GPC3 on tumor cell lines (HepG2, Huh-7, NCI-H661, MKN-45, NCI-H23, BxPC-3, NCI-H292) (human, UniProt P51654 25-554)
[2] = biological target: T1, human GPC3 on tumor cell lines (HepG2, …); remark: listed apart in the source
[3] = biological target: T1, human GPC3 on tumor cell lines (HepG2, …); remark: listed apart in the source

Binder | IC50 (M), Incucyte human TDC HepG2-Nuclight green assay [1] | Max % Killing, Incucyte human TDC HepG2-Nuclight green assay [1] | IC50 (M), Incucyte human TDC HepG2-Nuclight green assay [2] | Max % Killing, Incucyte human TDC HepG2-Nuclight green assay [2] | HepG2 on Incucyte IC50 [3] | HepG2 on Incucyte Max % killing [3] | Huh7 on xCELLigence IC50 [3] | Huh7 on xCELLigence Max % killing [3]
A022600105 (other) DVQLVESGGGVVQPGGSLRLSCVASGYVHKINFYGWYRQAPGKEREKVAHISIGDQTDYADSAKGRFTISRDESKNTVYLQMNSLRPEDTALYYCRALSRIWPYDYWGQGTLVTVSSGGGGSGGGGSGGGGSGGGGSEVQLVESGGGLVQPGGSLRLSCVASGFTFSSFAMTWVRRPPGKGLEWVATITNGGVTSYRDSVKGRFTISRDNAKNTLYLEMTSLNPEDTAVYICANARRTGPRAPTDIGSYRGQGTLVTVSSGGGGSGGGGSGGGGSGGGGSGGGGSGGGGSGGGGSEVQLVESGGGVVQPGGSLRLSCAASGFTFRSFGMSWVRQAPGKGPEWVSSISGSGSDTLYADSVKGRFTISRDNSKNTLYLQMNSLRPEDTALYYCTIGGSLSRSSQGTLVTVSSA | 2.14e-09 M | 85% | – | – | – | – | – | –
A022600104 (other) DVQLVESGGGVVQPGGSLRLSCVASGYVHKINFYGWYRQAPGKEREKVAHISIGDQTDYADSAKGRFTISRDESKNTVYLQMNSLRPEDTALYYCRALSRIWPYDYWGQGTLVTVSSGGGGSGGGSEVQLVESGGGLVQPGGSLRLSCVASGFTFSSFAMTWVRRPPGKGLEWVATITNGGVTSYRDSVKGRFTISRDNAKNTLYLEMTSLNPEDTAVYICANARRTGPRAPTDIGSYRGQGTLVTVSSGGGGSGGGGSGGGGSGGGGSGGGGSGGGGSGGGGSEVQLVESGGGVVQPGGSLRLSCAASGFTFRSFGMSWVRQAPGKGPEWVSSISGSGSDTLYADSVKGRFTISRDNSKNTLYLQMNSLRPEDTALYYCTIGGSLSRSSQGTLVTVSSA | 2.13e-09 M | 90% | – | – | – | – | – | –
A022600122 (other) DVQLVESGGGVVQPGGSLRLSCVASGYVHKINFYGWYRQAPGKEREKVAHISIGDQTDYADSAKGRFTISRDESKNTVYLQMNSLRPEDTALYYCRALSRIWPYDYWGQGTLVTVSSGGGGSEVQLVESGGGLVQPGGSLRLSCVASGFTFSSFAMTWVRRPPGKGLEWVATITNGGVTSYRDSVKGRFTISRDNAKNTLYLEMTSLNPEDTAVYICANARRTGPRAPTDIGSYRGQGTLVTVSSGGGGSGGGGSGGGGSGGGGSGGGGSGGGGSGGGGSEVQLVESGGGLVQPGGSLRLSCVASGSIFRSVFSSSTMEWYRQPPGKKRELVARIAPGDGTNYGALYADSVKGRFTISRDDAKKTVDLQMNSLKPEDTGVYFCASGVAWGQGTLVTVSSGGGGSGGGGSGGGGSGGGGSGGGGSGGGGSGGGGSEVQLVESGGGVVQPGGSLRLSCAASGFTFRSFGMSWVRQAPGKGPEWVSSISGSGSDTLYADSVKGRFTISRDNSKNTLYLQMNSLRPEDTALYYCTIGGSLSRSSQGTLVTVSSA | – | – | 4.45e-10 M | 92% | 0.53 nM | 93% | 0.261 nM | 101%
A022600132 (other) DVQLVESGGGVVQPGGSLRLSCVASGYVHKINFYGWYRQAPGKEREKVAHISIGDQTDYADSAKGRFTISRDESKNTVYLQMNSLRPEDTALYYCRALSRIWPYDYWGQGTLVTVSSGGGGSEVQLVESGGGLVQPGGSLRLSCVASGFTFSSFAMTWVRRPPGKGLEWVATITNGGVTSYRDSVKGRFTISRDNAKNTLYLEMTSLNPEDTAVYICANARRTGPRAPTDIGSYRGQGTLVTVSSGGGGSGGGSEVQLVESGGGLVQPGGSLRLSCVASGSIFRSVFSSSTMEWYRQPPGKKRELVARIAPGDGTNYGALYADSVKGRFTISRDDAKKTVDLQMNSLKPEDTGVYFCASGVAWGQGTLVTVSSGGGGSGGGGSGGGGSGGGGSGGGGSGGGGSGGGGSEVQLVESGGGVVQPGGSLRLSCAASGFTFRSFGMSWVRQAPGKGPEWVSSISGSGSDTLYADSVKGRFTISRDNSKNTLYLQMNSLRPEDTALYYCTIGGSLSRSSQGTLVTVSSA | – | – | 7.02e-10 M | 91% | 0.683 nM | 83% | 0.29 nM | 95%
A022600133 (other) DVQLVESGGGVVQPGGSLRLSCVASGYVHKINFYGWYRQAPGKEREKVAHISIGDQTDYADSAKGRFTISRDESKNTVYLQMNSLRPEDTALYYCRALSRIWPYDYWGQGTLVTVSSGGGGSEVQLVESGGGLVQPGGSLRLSCVASGSIFRSVFSSSTMEWYRQPPGKKRELVARIAPGDGTNYGALYADSVKGRFTISRDDAKKTVDLQMNSLKPEDTGVYFCASGVAWGQGTLVTVSSGGGGSGGGGSGGGGSGGGGSGGGGSGGGGSGGGGSEVQLVESGGGLVQPGGSLRLSCVASGFTFSSFAMTWVRRPPGKGLEWVATITNGGVTSYRDSVKGRFTISRDNAKNTLYLEMTSLNPEDTAVYICANARRTGPRAPTDIGSYRGQGTLVTVSSGGGGSGGGGSGGGGSGGGGSGGGGSGGGGSGGGGSEVQLVESGGGVVQPGGSLRLSCAASGFTFRSFGMSWVRQAPGKGPEWVSSISGSGSDTLYADSVKGRFTISRDNSKNTLYLQMNSLRPEDTALYYCTIGGSLSRSSQGTLVTVSSA | – | – | 4.08e-10 M | 92% | – | – | – | –
A022600134 (other) DVQLVESGGGVVQPGGSLRLSCVASGYVHKINFYGWYRQAPGKEREKVAHISIGDQTDYADSAKGRFTISRDESKNTVYLQMNSLRPEDTALYYCRALSRIWPYDYWGQGTLVTVSSGGGGSEVQLVESGGGLVQPGGSLRLSCVASGSIFRSVFSSSTMEWYRQPPGKKRELVARIAPGDGTNYGALYADSVKGRFTISRDDAKKTVDLQMNSLKPEDTGVYFCASGVAWGQGTLVTVSSGGGGSGGGGSGGGGSGGGGSEVQLVESGGGLVQPGGSLRLSCVASGFTFSSFAMTWVRRPPGKGLEWVATITNGGVTSYRDSVKGRFTISRDNAKNTLYLEMTSLNPEDTAVYICANARRTGPRAPTDIGSYRGQGTLVTVSSGGGGSGGGGSGGGGSGGGGSGGGGSGGGGSGGGGSEVQLVESGGGVVQPGGSLRLSCAASGFTFRSFGMSWVRQAPGKGPEWVSSISGSGSDTLYADSVKGRFTISRDNSKNTLYLQMNSLRPEDTALYYCTIGGSLSRSSQGTLVTVSSA | – | – | 5.28e-10 M | 92% | – | – | – | –
A022600135 (other) DVQLVESGGGVVQPGGSLRLSCVASGYVHKINFYGWYRQAPGKEREKVAHISIGDQTDYADSAKGRFTISRDESKNTVYLQMNSLRPEDTALYYCRALSRIWPYDYWGQGTLVTVSSGGGGSEVQLVESGGGLVQPGGSLRLSCVASGSIFRSVFSSSTMEWYRQPPGKKRELVARIAPGDGTNYGALYADSVKGRFTISRDDAKKTVDLQMNSLKPEDTGVYFCASGVAWGQGTLVTVSSGGGGSGGGSEVQLVESGGGLVQPGGSLRLSCVASGFTFSSFAMTWVRRPPGKGLEWVATITNGGVTSYRDSVKGRFTISRDNAKNTLYLEMTSLNPEDTAVYICANARRTGPRAPTDIGSYRGQGTLVTVSSGGGGSGGGGSGGGGSGGGGSGGGGSGGGGSGGGGSEVQLVESGGGVVQPGGSLRLSCAASGFTFRSFGMSWVRQAPGKGPEWVSSISGSGSDTLYADSVKGRFTISRDNSKNTLYLQMNSLRPEDTALYYCTIGGSLSRSSQGTLVTVSSA | – | – | 6.11e-10 M | 91% | – | – | – | –
